In PMC2172186 (The Journal of Cell Biology, 2004):

B1: TgGAP45 (Toxoplasma gondii gliding-associated protein 45) (natural protein, UniProt Q7Z289 1-245, looked up)
chain: MGNACKKNTAKTPTRKEAEDLAEKERQEREAKEKAEAEEKARAEAEKNAADKAEAERRAAEAREREESARKEAEAEAARKAEAEAAEAERLRKEAEKKKAEEAKRKAEEEQRAAAEEAEQRAREEAERRKAEAAAAAERERQMQEALKQEEMSPREKYDKLASPEDSASETTMATQPQKVAEHSSAAVTDRSVVGYTVTPCDMAAIDETAKYLSKRCGCDLGDQHDENECPICRHIDLSDAPLLN

What was measured:
[1] = molecular target: TgMyoA (Toxoplasma gondii myosin-A, class XIV myosin) (Toxoplasma gondii (endogenous in RH strain parasites)) (UniProt O00934); experiment: co-IP
[2] = molecular target: TgMyoA (Toxoplasma gondii myosin-A, class XIV myosin) (Toxoplasma gondii (endogenous in RH …, UniProt O00934 1-831)); experiment: co-IP

| Molecule | molar ratio to TgMyoA in the complex [1] | molar ratio to TgMyoA in the complex [2] |
| --- | --- | --- |
| TgMLC1 (Toxoplasma gondii myosin light chain-1) (natural protein) | 1.38 |  |
| B1 |  | 1.31 |
